The data set concerns the molecule itself. Nature of the data set: size exclusion chromatography (Superdex 200 Increase 10/300 GL); self-association of the chain: 92.1 kDa measured against 40.9 kDa calculated for the monomer. As for the experimental part: (A) Molecular sieve chromatography profiling of purified GH117A α-NABH was performed using a Superdex 200 Increase 10/300 GL column equilibrated with 40 mM Tris-HCl (pH 8.0) containing 150 mM NaCl. At this time, a protein solution containing 500 μg GH117A α-NABH was injected into the column, and the column was eluted at 4° C. at a flow rate of 0.3 mL/min, and the protein elution profile was monitored by measuring absorbance at 280 nm. […]
Molecular sieve chromatography was performed using a Superdex 200 Increase 10/300 GL column (GE Healthcare) equilibrated with 40 mM tris-HCl (pH 8.0) and 150 mM NaCl. Purified GH117A α-NABH (0.5 mg/0.5 mL) was injected into the column, and molecular sieve chromatography was performed under conditions of 4° C. and a flow rate of 0.3 mL/min, and protein elution was measured at a wavelength of 280 nm. For the column, a standard curve of retention volume versus protein molecular weight was obtained using size markers such as ferritin (440 kDa), aldolase (158 kDa), ovalbumin (44 kDa), and ribonuclease A (13.7 kDa), and molecular weight of the purified GH117A α-NABH was measured using the curve.

B1: recombinant His-tagged GH117A α-neoagarobiose hydrolase (α-NABH) of Cellvibrio sp. KY-GH-1 (enzyme)
chain: MGDLPEKKLSKASLRAIERGYDQKNADWVFEFDVKPLGGDFAYQEGVIRRDPSAVIFVDGLYHVWYTKGEGETVGFGSANPEDKVFPWDKTEVWHATSSDGWDWKEQGAAIVAGAPGSYDDRAVFTPEVLAHEGRYYLVYQTVKAPYLNRTKECIALASADSPYGPWVKSPAPILTPADNGVWDGDEDNRFNCKIRGDFDSHKVHDPCLMFYQNKFYLYYKGEIMGERMNFGGREIKHGVAIADKIEGPYVKSEFNPITNSGHEVVVWHVNGGIASLLTTDGPEKNTCQWSPDGINFDIMAHIKGAPEALGLYRDPAADIQDPMAGLAWGLCHKYDSSWNWNYICRFKTRRQILDPGTFQNVAS
notes: The entry under measurements means that the chain associates with itself; also called GH117A α-NABH; GH117 A α-NABH; not shown: C-terminal 6x His tag from vector pET-30a (cloned NdeI/XhoI)
Consider B1, for which the binding result is “binds”.
